According to article PMC8809517, “Cofactor-independent RNA editing by a synthetic S-type PPR protein”:

Tests used:
Assay in all cases: high-throughput RNA pulldown from lysate on Ni-NTA beads; HRP: 50 mM Tris pH 8, 150 mM NaCl, 1 mM beta-mercaptoethanol, 50 ug/ml BSA, 3 ug/ml yeast RNA, 0.5% heparin; ITC and FP: Tris pH 8, 200 mM KCl, 5% glycerol; MST: 50 mM Tris pH 8, 200 mM NaCl, 1 mM DTT, BSA, heparin, 0.05% Tween 20
Details in all cases: tags: N-terminal His-eGFP
[1] = target: T1, GFP-9S library array, motif 4 ND N98A;D124W (synthetic construct, N98A;D124W)
T1 chain: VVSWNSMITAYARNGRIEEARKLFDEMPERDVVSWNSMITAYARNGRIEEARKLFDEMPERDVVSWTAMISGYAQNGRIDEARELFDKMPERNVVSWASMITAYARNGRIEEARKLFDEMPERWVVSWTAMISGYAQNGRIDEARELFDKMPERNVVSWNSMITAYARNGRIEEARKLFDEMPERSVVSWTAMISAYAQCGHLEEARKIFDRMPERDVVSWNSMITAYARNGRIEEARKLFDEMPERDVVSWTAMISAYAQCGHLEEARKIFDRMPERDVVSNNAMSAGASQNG

[2] = target: T2, GFP-9S library array, motif 4 ND N98Y;D124T (synthetic construct, N98Y;D124T)
T2 chain: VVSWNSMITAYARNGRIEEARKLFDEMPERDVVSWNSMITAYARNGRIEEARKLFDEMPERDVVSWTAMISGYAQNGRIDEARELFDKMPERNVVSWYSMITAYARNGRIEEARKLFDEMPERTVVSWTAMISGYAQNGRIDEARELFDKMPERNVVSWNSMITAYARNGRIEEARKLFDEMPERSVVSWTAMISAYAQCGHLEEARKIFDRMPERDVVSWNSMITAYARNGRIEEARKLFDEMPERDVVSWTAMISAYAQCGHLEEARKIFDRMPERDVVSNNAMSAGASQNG

[3] = target: T3, GFP-9S library array, motif 4 ND D124M (synthetic construct, D124M)
T3 chain: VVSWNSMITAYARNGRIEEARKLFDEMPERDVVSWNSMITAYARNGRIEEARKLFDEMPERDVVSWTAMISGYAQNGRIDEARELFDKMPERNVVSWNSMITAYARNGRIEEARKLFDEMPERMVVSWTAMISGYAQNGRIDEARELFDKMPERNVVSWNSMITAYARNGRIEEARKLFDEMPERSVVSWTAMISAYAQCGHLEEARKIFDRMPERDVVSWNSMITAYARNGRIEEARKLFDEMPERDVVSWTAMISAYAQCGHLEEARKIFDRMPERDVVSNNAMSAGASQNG

[4] = target: T4, GFP-9S library array, motif 4 ND D124L (synthetic construct, D124L)
T4 chain: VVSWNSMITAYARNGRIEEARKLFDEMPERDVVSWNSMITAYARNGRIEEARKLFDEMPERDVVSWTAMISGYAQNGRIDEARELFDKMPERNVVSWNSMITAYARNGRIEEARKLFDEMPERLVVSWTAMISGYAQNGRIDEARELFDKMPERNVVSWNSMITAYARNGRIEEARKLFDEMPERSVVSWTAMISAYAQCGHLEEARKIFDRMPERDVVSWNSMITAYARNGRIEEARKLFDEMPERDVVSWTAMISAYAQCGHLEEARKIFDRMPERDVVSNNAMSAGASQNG

[5] = target: T5, GFP-9S library array, motif 4 ND N98E;D124K (synthetic construct, N98E;D124K)
T5 chain: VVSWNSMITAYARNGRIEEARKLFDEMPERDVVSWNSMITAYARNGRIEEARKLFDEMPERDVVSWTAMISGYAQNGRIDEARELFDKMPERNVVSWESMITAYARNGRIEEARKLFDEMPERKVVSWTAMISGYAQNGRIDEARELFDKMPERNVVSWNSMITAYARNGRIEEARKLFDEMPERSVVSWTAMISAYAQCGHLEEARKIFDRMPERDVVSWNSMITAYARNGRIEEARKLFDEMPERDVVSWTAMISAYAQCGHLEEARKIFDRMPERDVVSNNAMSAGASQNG

B1: Cy5-rpoA (ssRNA)
RNA: AUUACACGUGA
B1 showed a Kd ([1]; label: 5' Cy5) of 0.129 µM, a Kd ([2]; label: 5' Cy5) of 0.0963 µM and a Kd ([3]; label: 5' Cy5) of 0.0711 µM. For the same binder, the Kd ([4]; label: 5' Cy5) was 0.105 µM and the Kd ([5]; label: 5' Cy5) was 0.124 µM.

B2: IR-rpoA-A (ssRNA)
RNA: AUUAAACGUGA
Work on B2 yielded a Kd ([1]; label: 5' IRDye 800CW) of 0.138 µM, a Kd ([2]; label: 5' IRDye 800CW) of 0.158 µM and a Kd ([3]; label: 5' IRDye 800CW) of 0.0781 µM. For the same binder, the Kd ([4]; label: 5' IRDye 800CW) was 0.291 µM and the Kd ([5]; label: 5' IRDye 800CW) was 0.312 µM.

B3: Cy5-rpoA-G (ssRNA)
RNA: AUUAGACGUGA
B3 was tested, and the Kd ([1]; label: 5' Cy5) was 0.104 µM, the Kd ([2]; label: 5' Cy5) was 0.105 µM and the Kd ([3]; label: 5' Cy5) was 0.139 µM. For the same binder, the Kd ([4]; label: 5' Cy5) was 0.131 µM and the Kd ([5]; label: 5' Cy5) was 0.155 µM.

B4: IR-rpoA-U (ssRNA)
RNA: AUUAUACGUGA
Binder B4 has a Kd ([1]; label: 5' IRDye 800CW) of 0.149 µM, a Kd ([2]; label: 5' IRDye 800CW) of 0.075 µM and a Kd ([3]; label: 5' IRDye 800CW) of 0.0212 µM. For the same binder, the Kd ([4]; label: 5' IRDye 800CW) was 0.0966 µM and the Kd ([5]; label: 5' IRDye 800CW) was 0.267 µM.
